From patent US20250243262A1 (AstraZeneca / MedImmune, published 2025)

Biological target: PcrV on live P. aeruginosa (type III secretion system of the infecting bacteria) (Pseudomonas aeruginosa)
Assay: cell-based or functional assay

B1: V2L2 anti-PcrV monoclonal antibody (antibody, IgG1, V domains shown)
VH: EMQLLESGGGLVQPGGSLRLSCAASGFTFSSYAMNWVRQAPGEGLEWVSAITISGITAYYTDSVKGRFTISRDNSKNTLYLQMNSLRAGDTAVYYCAKEEFLPGTHYYYGMDVWGQGTTVTVSS
VL: AIQMTQSPSSLSASVGDRVTITCRASQGIRNDLGWYQQKPGKAPKLVIYSASTLQSGVPSRFSGSGSGTDFTLSISSLQPDDFATYYCLQDYNYPWTFGQGTKVEIK
  inhibition of cytotoxicity, IC50 against that of mAb166: 28 fold
  percent inhibition of cytotoxicity (lysis of A549 cells by P. aeruginosa 6077, LDH release), IC50: 0.1 µg/mL
  prevention of RBC lysis, IC50 against that of mAb166: 10 fold
  prevention of lysis of rabbit RBCs by P. aeruginosa 6077, IC50: 0.37 µg/mL
